Laboratory results taken from the DeepSol protein solubility set.

assay: soluble on expression in E. coli; label from the status in PepcDB or PDB records

Sequence	soluble on expression in E. coli
MQQQKTVQPEAKQKVEVGVLAIRGHLYAEQRWQPTIDWLNQQISDVHFELHPLNLDEMGEAVKFQTMDFILTNPGQAVRLGRQYALSWMATLTGRAPQNSNYSIGSALVVRANSPYQTLKDVSGFPVAAVSEKAFGGYLTLRYQIVEMGLDPNDFFADVRYLGFPIDANLYQLRDGNVEAAVVPACLLEQMQNEGLLQHGDFRVLNQQPNEHSSCAVSTPLYPNWSFAKTERGSSLLAKKIAQVLLAMPPEHP	not soluble
MQRIVIVGGGVGGTMLANLLVVRLYPEILGGEVQVLLISDSPDHYYKPAFMYVAFEQFFLEDLKRPQRSLLRPEVMFQLDRVDRFDFPRQELQTRSGRRHGYDYLVIATGCVPAPERIEGLKEAGDHFYQYQPARRLAERLASLESGRVFITVSFPRTPNVPHQCGIAPVETTLMLDDYLRRRGVRERVEIVYTYPTTAQLLRNCLFLQRPTCEILPSLFEQRGIRFQRGFTLARVDPERRIAYSEEGDEQPFDLLMATPPIHAVDAVRECGLPQAAADEGWLPTNHETLQVYGVDRVYTLGDTVDLPVSKAGGACHNQAPVVASNIAAEIRLGKPCAIYDGRVQAVAQMGLNAGMPLWYDYRHDVKPTPPTKLGGLLRQGFNRGLYWAVARGMLLEHHHHHH	soluble
MQSFNSGSTKIHNAFPEESTRPQKAEGNTAMNILVLGSDSRGSSDADVEANTATDQRADTLMLVHVPADRKKTYAISLMRDLWIDIPGVGESKINAALAYGGVPLMVQTVESLLQQRIDHVAMIDFQGFKGLTDALGGVEVDVRIPFAPSSGPKAGQVYDAGKQTLNGDEALAFVRERKAFSDGDYQRVRNQQAYLKAIIGKVIARETLTNPVTISNMVSAVSPFVSVDKDFDAAAIGSLALSMKDVRAQDTVMFTLPTLGTGTSPDGQSIVLADTTAIADVTAALAKDQVDAYITAHALDKGFLEHHHHHH	soluble
MQSKTAKLPDNDRNRPLIQTFNDAQQKVWFDDALLHEDPSQCCNPEFWQQNGKVLGSATGRGTTWFVQLQQTQGALRHYRRGGLFGKLVADSYWFTGWEKTRSYQEFMLLNHLRDAGVNVPRPIAARVQKHGLLYKADLLSEKVPNARDLVSILQESPISDELYRKIGREIRKMHDAQVNHTDLNIHNILIDDQEKVWIIDFDKCYVQIGDSWKQGNLKRLKRSFEKEVCKRGINWSLEAFAIISSYKHEE	not soluble
MQSWKERRDFNIVKQDLDFSCGAASVVTLLNNFYGQKLTEEDVLKKLDKEQMPASFEDMRRIMPDLGFEAKGYALSFEQLAQLQIPVIVYLKYRKDDHFSVLRGIDGNTVLLADPSLGHVSMSRAQFLDAWQTREGNLAGKILAVVPKGRDAGGDKAFFTRSPKRQTEFAVGQVKWWRAY	not soluble
MQTIKNSLGQSHDYIKMFVKEGDTVVDATCGNGNDTAFLASLVGENGRVFGFDIQDKAIANTTKKLTDLNLIDRVTLIKDGHQNMDKYIDCPVKAVMFNLGYLPSGDHSISTRPETTIQALSKAMELLVTGGIITVVIYYGGDTGFEEKEKVLEFLKGVDQKKFIVQRTDFINQANCPPILVCIEKISLEHHHHHH	not soluble
MQTLGFRRPNQVREAVYRHLKDLLLSGRFSPGERLSEPLLAQELGVSRTPVREALMRLAEEGLVELVPGKGARVRVFAPEEVEEVYGVRALLEGEAAREAALRATPWELAELERLLQAIDEAPREDYPEQMRRDLEFHRALVRLSGNRTLYRLYEDLLATLALARSALPTLSQDEATRREHRAILEALLRRDPEEARRAVEAHVFRFRDLVVGRLREEGG	soluble
MQTQEVVIKPTLKVLLKSDSQNLEEVVVTAMGIKRSEKSLGYAVSSVKGDEITKARESNVLNSLSGKIAGLQIAQSSGTVGGSSSIQIRGASSIGTVSSPLFIIDGLPIDNGSYNPDRTNGIVDVGNRAGDINSDDIESINVLKGAAATALYGARAKDGAIVITTKKGKKNSPVFVTVNSSTRFENVLKLPDFQNEYAQGSYGVYNVKMLNGWGPKISSVQDQQFTDYKGDKVTLKANPDNVKDFYETGMSYINNVSVAGGGEKADFRLSFTSTNQTGVVPGSDYNKYAFSVNAGMNFTSNFTGRISAQYIRSDSEGRPAQGANDSNLLIPLINGLPRTIDIHDIKQNWIDENGKQVTLDPEGKSNNPYWIINKNKFTNNLDRMIGNITLTYKPIEGLTITNNAGTDFYTEGRRKLYAKGTVGALNGKFQTWNLYKRIINNDLMVSYEKTFANDYHFKAMVGHNLYQEEWKNENVQAQNLVVDGLYTYTNAKSTTPVNYYEKKRLVGLYGDISLGYKDMLFINVTGRNDWSSTLPINNRSYFYPSISGSFIFTELMENKDILNYGKIRLSYANVGSDEDPYNLAFKYTPASTYFLQYLGNVNTFPHMGLVGFTGPRVLPNENLKPQNQSSFEVGADLRFFGGKIRLDMTYYSNITKNQIVSIDVPLSTGYFANNINAGKIANKGVEVTLGLTPVETRNFKWDLDATFASNKQTVEELAEGLDEYTLTSGLSGLQIKAAKGDSFGLYGTAWKRDDQGNYVINSKTGLRETVNNVRLGDVYPDFTMGINNTLTYKGLTFSFLIDIRHGGSLYSETVANLRSSGLAAETVAHREDASFIEPGVILQDDGTYRPNDVPVKSMQDYWQHVANSSNNEGNIYNASFVKLREVQLSYSFPRKWFKSFFVKSLDLGFEARNLWIIKDHVPHIDPEANFFGPSQIGGGVEFNSIPSTRSFGFNLRLTL	not soluble
MQVFDLSVDGATTIDIGASTGGFTDVMLQNSAKLVFAVDVGTNQLAWKLRQDPRVVSMEQFNFRYAEKTDFEQEPSFASIDVSFISLSLILPALHRVLADQGQVVALVKPQFEAGREQIGKNGIIRDAKVHQNVLESVTAMAVEVGFSVLGLDFSPIQGGHGNIEFLAYLKKEKSASNQILAEIKEAVERAHSQFKNE	not soluble
MQVHSGETEILRKAVEDYFCFCYGKALGTTVMVPVPYEKMLRDQSAVVVQGLPEGVAFQHPENYDLATLKWILENKAGISFIINRPFLGPESQLGGPGMVTDAERSIVSPSESCGPINVKTEPMEDSGISLKAEAVSVKKESEDPNYYQYNMQGSHPSSTSNEVIEMELPMEDSTPLVPSEEPNEDPEAEVKIEGNTNSSSVTNSAAGVEDLNIVQVTVPDNEKERLSSIEKIKQLREQVNDLFSRKFGEAIGVDFPVKVPYRKITFNPGCVVIDGMPPGVVFKALGYLEISSMRRILEAAEFIKFTVIRPLPGLELSNVGKRKIDQEGRVFQEKWERAYFFVEVQNIPTCLICKQSMSVSKEYNLRRHYQTNHSKHYDQYTERMRDEKLHELKKGLRKYLLGSSDTECPEQKQVFANPSPTQKSPVQPVEDLAGNLWEKLREKIRSFVAYSIAIDEITDINNTTQLAIFIRGVDENFDVSEELLDTVPMTGTKSGNEIFLRVEKSLKKFCINWSRLVSVASTGTPAMVDANNGLVTKLKSRVATFCKGAELKSICCIIHPESLCAQKLKMDHVMDVVVKSVNWICSRGLNHSEFTTLLYELDSQYGSLLYYTEIKWLSRGLVLKRFFESLEEIDSFMSSRGKPLPQLSSIDWIRDLAFLVDMTMHLNALNISLQGHSQIVTQMYDLIRAFLAKLCLWETHLTRNNLAHFPTLKLVSRNESDGLNYIPKIAELKTEFQKRLSDFKLYESELTLFSSPFSTKIDSVHEELQMEVIDLQCNTVLKTKYDKVGIPEFYKYLWGSYPKYKHHCAKILSMFGSTYICEQLFSIMKLSKTKYCSQLKDSQWDSVLHIAT	soluble
MQVLDKTQVEAVSKALGEPAWLLEKRLKALEAFARLPYPSKKDENWRYTDLSEAPLELPVEAPKGLRLSRDDLPEPVKRRLERTDVSGFLVFVGPDLVYAEVPEALKEKGLVFTSLAEALKTHPDKVEAALFQAVYTEDKFAAQNSAFFTHGAFLYVPAGLEVEKPLGVFKVLLEGEKASAGRSLLFLEDNAKAAYIEEYLSLDLPPTLHLSATEMVLRPGARLRHAHVQTFGEGVWHFHRQRALLERDSGLNDLVVNLGGAYARSEVASELVGPGAESEMLGLYFGHGRQQFDHYTLQHHVEHHTRSDLLYKGAVKDEARAVFSGLIRLEKGAQKTDAYQANRNLLLSPTARVDSIPQLEIGANDVRCTHGSTTAPVDEMQLFYLQSRGLPRGLAQELLVKAHLADVLSRIPLKALRAHIEAVIEEKVRI	soluble
MQVMFYSPSGQKLFGENGSPAFLLKGGITDLKGAIEARTTVIPEVPGQVFDGVTIKPFTFGVTMVVYPTKEMPMEKAMRKTRQIFSAFDYSTCRIDGTGIPVGLKVRLDSIISAPSQDTAKEIAEEITITLAADEGIFWADRKEASGKIDIVNYGDCDLWPEYRWQKTTTITLPSGAKINLPETPTPRVLRTTRHQVSITDLDGKPDRELLKKLGTVWPEGVPRKETKTYEITQNGYIMWRIGYLDPWGL	not soluble
